Test results as given in the DeepSol protein solubility set.

assay: soluble on expression in E. coli; label from the status in PepcDB or PDB records

Row | Sequence | soluble on expression in E. coli
1 | MSLRWQWRIYEEPLQEPLTTAQGVWRSRSGIYLRLEDEQGQVGYGEIAPLPGWGSETLNADIALCQQLPGHLTPEIMATIPEALPAAQFGFATAWQSVGRLPYRVRPWPICALLGSGQAALEQWQQSWQRGQTTFKWKVGVMSPEEEQAILKALLAALPPGAKLRLDANGSWDRATANRWFAWLDRHGNGKIEYVEQPLPPDQWQALLSLAQTVTTAIALDESVVSAAEVQRWVDRGWPGFFVIKTALFGDPDSLSLLLRRGLEPQRLVFSSALEGAIARTAIFHLLETWQPCHALGFGVDRWRSAPLLTTLTAYERLWERLDQGHHHHHH | soluble
2 | MKNEMLALILAGGQGTRLGKLTQSIAKPAVQFGGRYRIIDFALSNCANSGIHNVGVVTQYQPLALNNHIGNGSSWGLDGINSGVSILQPYSASEGNRWFEGTSHAIYQNIDYIDSVNPEYVLILSGDHIYKMDYDDMLQSHKDNNASLTVAVLDVPLKEASRFGIMNTDANNRIVEFEEKPAQPKSTKASMGIYIFDWQRLRNMLVAAEKSKVGMSDFGKNVIPNYLESGESVYAYEFSGYWKDVGTIESLWEANMEYISPENALDSRNRQWKIYSRNLISPPNFLGANAHVEDSLVVDGCFVDGTVKHSILSTGAQVREGAEVLDSVIMSGAIIGQGAKIKRAIIGEGAIISDGVEIDGTDEVQVVGYNEVVGVATDED | not soluble
3 | NLSSSESQESTGQHQVTVAAVQGNVPRLGLDFNAQRRAVLANHVQETRKLTEQVDFIVWPENSSDVDPFADVRARNLINSAVASVQAPIVVGTVTTDEVGARNAMVVFDPETGEGDWHVKKFLQPFGEWMPWRDFFRKFSSLVDLAGDFKPGEGSGVVRVHAAQLGETVKLGISTCYEVAFDQAGRDAVLAGAQILATPTNNATFGFTDMTYQQLAMSRMRAIELDRAVVVAATSGVSAIVTPRGEVLQHSKIFESATLVQSLPLKETITFSARYGTLLE | not soluble
4 | MGSDKIHHHHHHMHPKSPLTMQQSSVFIDSEVLLDDRKFAEAMLLKKDKAGLSRADMVFVLRNLLRLKYYPVAVKFFYDEAEVEKFKAEHEYLVACNPFTFCHFCAESRQKGDVLFGERRTLGCSNARYLFGWKDYDENEIKSHMKYVKDREQAERFVKTKPRLPEGLLAFATAPLHKAKFEPDLVFIICDVLQSYHLYNDYAAAMDVHPIRPNFMMNSAACGGAVWSYVENTINIVPMCSGSYTAGKTEQGEINVFIPWAHFEKLVVRLLERTASQGGASFPRTGETYPGFDICKLCNFLLFRKPKEDE | not soluble
5 | MSDKNQIAARASLIEQLMSKRNFEDLGNHLTELETIYVTKEHLQETDVVRAVYRVLKNCPSVALKKKAKCLLSKWKAVYKQTHSKARNSPKLFPVRGNKEENSGPSHDPSQNETLGICSSNSLSSQDVAKLSEMIVPENRAIQLKPKEEHFGDGDPESTGKRSSELLDPTTPMRTKCIELLYAALTSSSTDQPKADLWQNFAREIEEHVFTLYSKNIKKYKTCIRSKVANLKNPRNSHLQQNLLSGTTSPREFAEMTVMEMANKELKQLRASYTESCIQEHYLPQVIDGTQTNKIKCRRCEKYNCKVTVIDRGTLFLPSWVRNSNPDEQMMTYVICNECGEQWYHSKWVCW | soluble
6 | MSLVRQEPLRPDQPLEMGFEYRSAVRTVRTDSTGLIIPAPTARFSLNESPWRSCKGGMMAGMSSLVRIVNAGVPGSQDRVDVVLRDGVVASVGPAGTVSASDGTMQTKAHTTSLAYATNAIASGGVSIPTSASAPADETTIDADGLWVIPGLWDCHTHFTQWVKTLGRLDLINARSAAEAMDMLRRHLDERRAADTLDPDAFVVGMRFRHSLWADDEQPTLAAIDAVTGEQPVALSSADMHCGWVNSAAARRLGVHVDESGLVGELEWFNAYTAFDKAPGAAEETDRLLREAEQDAASKGVVGIRDYEMAENIDTWINRFAAGINGLRVDAGVYPERLRAAIDAGWHTGKELPGSAGLGHVGAMKLISDGSLNTRSAYCSTPYSGIEPLTYGTLSYTPQQIEDYMRLATEHGFDIACHAIGDEANTIALNAVAATHAHGSIEHAQMLKPVDIPRFAELGLTASIQPQHAMDDRDVITRFWANPAGIPYPFRALHDAGTTLRMGSDAPVAPLDPWLAISAAVLGTESSDREPFQPEQCLDVHTSLAASTATGRDRLASGDPADVVLLDADPYAADTPEAMRAMPQHVVMTLLCGERTYEGHHHHHH | not soluble
